What was measured:
[1] = target: biotinylated prefusion RSV F DS-Cav1, subtype B (respiratory syncytial virus, subtype B | not stated) (UniProt P13843)
[2] = target: full-length prefusion F N426D (RSV F residues 1-574 with the DS-Cav1 stabilizing mutations and N426D (respiratory syncytial virus, strain not stated) (UniProt P03420)); test: flow cytometry on cells
[3] = target: biotinylated prefusion RSV F DS-Cav1, subtype B (respiratory syncytial virus, subtype B | not stated) (UniProt P13843); test: Luminex bead binding assay; biotinylated RSV F proteins coupled to avidin-coated MagPlex beads (1 μg per 50,000 beads); IgG in 10-fold serial dilutions 1 μM to 0.1 pM; PE-conjugated anti-human IgG Fc; PBS, 0.1% BSA, 0.05% Tween 20
[4] = target: purified prefusion F N426D (respiratory syncytial virus, strain A2 | not stated) (UniProt P03420); test: ELISA
[5] = target: AM14 IgG (human); test: ELISA
Sequence of AM14 IgG (human) (heavy, as listed by the source, chain 1 of 2): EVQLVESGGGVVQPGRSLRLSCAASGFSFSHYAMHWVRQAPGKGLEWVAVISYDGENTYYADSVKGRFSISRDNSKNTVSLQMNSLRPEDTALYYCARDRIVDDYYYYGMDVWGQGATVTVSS
Sequence of AM14 IgG (human) (light, as listed by the source, chain 2 of 2): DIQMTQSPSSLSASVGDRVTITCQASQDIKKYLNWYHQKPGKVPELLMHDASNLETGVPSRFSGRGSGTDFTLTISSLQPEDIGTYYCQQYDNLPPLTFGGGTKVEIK

| Substance | IC50 of neutralisation of RSV subtype B strain 9320 (F of the virus), microneutralization on HEp-2 cells [1] [µg/mL] | IC50 of neutralisation of RSV subtype B strain 18537 (F of the virus), microneutralization on HEp-2 cells [1] [µg/mL] | fold reduction of binding against wild-type prefusion F [2] [fold] | EC50 [3] [nM] | fold reduction of binding against wild-type prefusion F [4] [fold] | fold decrease in other [5] [fold] |
| --- | --- | --- | --- | --- | --- | --- |
| AM14 IgG (antibody) | 0.0046 | 0.0308 | 4 | 0.18 | 100 | – |
| cleaved monomeric RSV F (residues 1-524, without the foldon trimerization motif) (from UniProt P03420 26-109; P03420 26-524) (domain or fragment) | – | – | – | – | – | 100 |

Source: PMC4498696
